Reference: PMC9207482

Assays:
[1] = target: SlPYL1 E151D (tomato (Solanum lycopersicum)); assay: SEC; Superdex 30 Increase 3.2/300 column as printed; 50 ul with 60, 6 or 0.6 ug protein (48 to 0.48 uM injected); 30 mM Tris-HCl pH 7.5, 150 mM NaCl, 1 mM DTT; apo form, no ABA; refractive index detection
[2] = target: SlPYL1 wild type (tomato dimeric abscisic acid receptor PYL1) (tomato (Solanum lycopersicum)); assay: as above

| Substance | stoichiometry N [1] | stoichiometry N [2] |
| --- | --- | --- |
| SlPYL1 E151D (receptor) | 2 |  |
| SlPYL1 wild type (tomato dimeric abscisic acid receptor PYL1) |  | 2 |
